± gives the uncertainty stated by the source.

The text below walks through data of the supplement of paper PMC12042874.

The data set in a line: amyloid nucleation score (Sup35N fusion, yeast selection) (log enrichment); library NNK1; higher = more nucleation; inactive = no reads after selection. The method, boiled down: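 Sup35N was fused to peptides of 20 random codons and expressed in psi-negative yeast, which were induced with 100 μM copper sulfate for 24 hours and then grown on medium lacking adenine and uracil for 7 days at 30°C. Plasmid inserts from input and output were sequenced on Illumina. The nucleation score is the DiMSum log enrichment of output over input reads, centred on the mode score of non-aggregating sequences. Sequences with under 100 input reads were left out, and random libraries had three technical output replicates.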
For the substance MSSFRGDLEFAYDYS, the amyloid nucleation score is -0.582 ± 1.2.
Under MSVCAIYRVRVFQCCFTCLH stands -0.953 ± 0.68; under MSVGSRFTHHIMWTVTKNRV, 0.424 ± 1.
Take MTAPHFLYLKRPHRPTRPDL: the amyloid nucleation score is 0.898 ± 0.58.
Under MTRLINYCNGYNAKVVNWCF stands 0.7 ± 0.97.
As for MTRNELLSLSLARCVGANAL, the amyloid nucleation score stood at 0.088 ± 1.2.
Under MTRWTGRSLTLMRLQVVLRP stands -0.413 ± 0.62; under MTSLFLCKVTRM, 0.23 ± 0.6.
Then MTSVADECSLYSWAYSWLMS, with 1.84 ± 0.57; and MVDTYRYVIISVYVMLPYYN, with 1.14 ± 0.97.
Under MVETVYMVEALCRGPEPVVV stands -2.09 ± 2.4; under MVFRGFHKSQLGSFELAVGG, 0.428 ± 0.76; under MVGQYRYLSPYGW, 0.724 ± 1.2.
As for MVKLSLVIMMVLNGGMANGS, the amyloid nucleation score was 0.69 ± 0.81.
Then MVQNVWDVRYDEAAMTLVRH, with 0.461 ± 0.61; and MVRYKRRSLELFMIARYSCC, with 0.599 ± 1.2.
Then MVSTPSDGNLED, with -0.816 ± 0.65; and MVWVKGEDCFVDQACLRGAV, with 1.03 ± 0.72.
Then MWIPFRVYLRAH, with “inactive”; and MWLFYRWVRSCTCP, with -0.042 ± 0.32.
In the case of MWSIYMHVAHLGMQTRGCCR, the amyloid nucleation score worked out at 1.76 ± 0.22.
Take MWSLDGTKICNLRKVFGRSC: the amyloid nucleation score turned out to be 0.809 ± 0.37.
Then MYASELSLKPATYSWK, with -0.646 ± 0.42; and MYYSIGWKR, with 1.48 ± 0.8; and MYYVIFNTNSHAN, with 4.55 ± 0.093.
NAAYRVWMWKSLVRSLGRYK displayed an amyloid nucleation score of 0.647 ± 0.4.
NADCLIDDFASFDHMVPG: the amyloid nucleation score is 0.004 ± 0.51.
In turn, NAFSYTGRYIGLPRELGVLR had an amyloid nucleation score of 1.06 ± 0.52.
Then NCASLLGRFSDDLIDHLSVL, with 2.02 ± 0.62; and NCMAISGITVLNMSWNNLKI, with 6.612 ± 0.064.
Then NCMLTECPGLHSNLMWSKWG, with 1.5 ± 0.25; and NCNSGSNDTGFWQMASRTGL, with 0.071 ± 0.4; and NCRMGR, with -0.016 ± 1.7.
Then NCSMPFETMMKHSRN, with -0.068 ± 0.53.
As for NCTWITGIFS, the amyloid nucleation score was found to be 0.044 ± 0.35.
Then NDDYHTLSQCACSFALRADG, with 1.08 ± 0.54; and NDIPLSIRSHS, with 0.269 ± 0.37; and NDIYLDGNVFKF, with -0.477 ± 0.37.
Under NDNLVDNQT stands 0.23 ± 0.75.
Then NDQVNVNFS, with 0.338 ± 0.22; and NDRCFIGPWRSSRPGDFSGH, with -0.043 ± 1.4; and NDRFFGSKYCGVIVLSISDL, with 5.95 ± 0.061.
NDRTKNQSYFP came in with an amyloid nucleation score of -0.195 ± 0.29.
Take NDSICTYSMAWGRERSGVCY: the amyloid nucleation score result is “inactive”.
NDSNSPIFPGGDHPWCGFDW: the amyloid nucleation score stood at 0.089 ± 0.88.
Under NDYEELIMYFKEDVF stands 1.76 ± 0.5; under NECSGGLQKLLNRTTNSDLW, 0.185 ± 0.33; under NERSSEELAPLDTQWSMLRG, -0.124 ± 0.69.
With NEVPCVRRWSCRGLCARELM, the amyloid nucleation score was determined as 0.429 ± 0.88.
Under NFCVSVVFP stands 1.84 ± 0.54; under NFDYHTTTVGMELWSLGFSS, -0.585 ± 0.51; under NFHFVMGISVIRRLMSESQS, -0.366 ± 0.66.
Take NFLIANRSLDAVLMVQLPFV: the amyloid nucleation score was -0.344 ± 0.98.
Then NFPFMFKCSPGNVHLVDIR, with -0.535 ± 1.7; and NFVICNVMDRISWLCVCNLH, with 4.08 ± 0.076.
Under NGCDIFSFGFYLLILFSLIQ stands -0.196 ± 0.49; under NGCVLLMVMVLTVDIAL, 2.78 ± 0.18; under NGEILSTLDDVTMLRIRTTC, 0.071 ± 0.41.
As for NGFGAYVYNSYLRFGNLSRA, the amyloid nucleation score entry is “inactive”.
Then NGFLTSRCMLVCMKGMV, with 0.729 ± 0.34; and NGFQLTILKDHGLVKRQSPR, with “inactive”.
The substance NGLGFLNGRSSFGVGCYY returned an amyloid nucleation score of -0.486 ± 0.28.
Under NGMLFCT stands 0.267 ± 0.79.
Under NGRLMVGMLHV stands 0.719 ± 0.56; under NGTRYMEAIMEKSLC, 1.47 ± 0.4.
NGTTLVAVSYELPLSGVLSK gave an amyloid nucleation score of -0.798 ± 0.57.
Under NGVMESGNRRTLLRPTVVET stands -0.016 ± 1.2; under NGVSTVEYVMFKFSIAFAMF, 6.583 ± 0.046.
Then NGYELYTDQGGQLVVCDESS, with -2.07 ± 1.6.
Then NGYFYTTYASDVPRRYVPYL, with 0.387 ± 0.33; and NHFGAYVVYGFIEHKKTGMW, with 1.82 ± 0.19.
NHIQRVSTFVLAMSYYVRTV yielded an amyloid nucleation score of -0.236 ± 1.2.
Under NHPTRPLTTQLGLAAQAKSG stands -0.153 ± 0.47; under NIAYQTDSGVRLRFVTDSRG, “inactive”; under NICTLYPT, 0.236 ± 1.1.
Under NICVFNEFKVYNAYTVYWGW stands 5.801 ± 0.054; under NICWFGVSRLQKMEGLWTGA, 0.515 ± 0.67.
Under NIITVGNGSILMMVWSSEVN stands 5.63 ± 0.08.
The substance NIVFL gave an amyloid nucleation score of 0.021 ± 0.55.
Under NIVSALRYITPYYLAAYPIT stands 0.025 ± 0.36; under NKAVKLQSDPMGALC, 0.701 ± 0.54; under NKLGLLRVFKVRFPPCCCCD, -0.266 ± 0.99.
Then NKTLV, with “inactive”.
Under NKVHSSFSLGGLPEARASDE stands 0.966 ± 0.66.
NKVLCFK: the amyloid nucleation score result was “inactive”.
Then NKWSRSGKRCAKMGNSCSDE, with 1.49 ± 0.69; and NKWYVF, with 0.071 ± 1.1.
Under NLALLEYVINSVSTMFYISN stands 0.276 ± 0.24; under NLCSFFMFTIILGGNVGTFM, 7.208 ± 0.044.
Substance NLDFLLFGIECIVKTCPFGY returned an amyloid nucleation score of 0.01 ± 0.44.
Under NLFCRRMSSDWALKSELSNH stands 0.708 ± 0.36; under NLFVSYSTDNSSTFMWDSVR, 4.44 ± 0.058.
Under NLGLR stands 4.49 ± 0.077; under NLGVVSIHDRHRYVAKVYSS, 0.844 ± 0.5; under NLILIR, 0.72 ± 0.61.
Substance NLKADRFDHGSPEVVSLSFI showed an amyloid nucleation score of -0.027 ± 0.98.
Under NLKRPNELWINIETFIRSLH stands 1.32 ± 0.38.
Under NLLWCIVGTKPWKVLTTVNY stands -0.28 ± 0.38.
NLQVVYMSLV displayed an amyloid nucleation score of 2.99 ± 0.14.
Then NLSGSFPN, with -0.2 ± 0.92; and NLSSYGR, with 0.798 ± 0.23; and NLTRHVDVANPAPRLPHLGV, with -0.146 ± 0.46.
NLTTPIWDRSYCSYMNMMNS had an amyloid nucleation score of 0.369 ± 0.42.
